Laboratory results published in patent US20140178561.

Key:
Assay in all cases: cell_activity
Conditions in all cases: pair value
[1] = system: VInv_T01 TALE-nuclease left monomer (synthetic construct)
[2] = system: VInv_T03 TALE-nuclease left monomer (synthetic construct)
[3] = system: VInv_T01 TALE-nuclease right monomer (synthetic construct)
[4] = system: VInv_T02 TALE-nuclease left monomer (synthetic construct)
[5] = system: VInv_T02 TALE-nuclease right monomer (synthetic construct)
[6] = system: VInv_T03 TALE-nuclease right monomer (synthetic construct)
[7] = S. tuberosum protoplasts, endogenous locus
[8] = yeast beta-galactosidase assay 37 C, 0.95 at 30 C
[9] = S. tuberosum protoplasts, text p49 gives range up to 9.5%
[10] = yeast beta-galactosidase assay 37 C, 0.82 at 30 C
[11] = yeast beta-galactosidase assay 37 C, 0.89 at 30 C

Work on “TTCCTCCCGGATCAACC (double strand) [VInv_T1 left half-site]” yielded an activity [1, 7] of 3.6 % NHEJ and an activity (relative to I-SceI) [1, 8] of 0.94.

Work on “TAGCCTTCTTTCCGATC (double strand) [VInv_T3 left half-site]” yielded an activity [2, 9] of 9.9 % NHEJ and an activity (relative to I-SceI) [2, 10] of 0.96.

With “GAAGTCCCTTAAAATCA (double strand) [VInv_T1 right half-site]” the activity [3, 7] was 3.6 % NHEJ and the activity (relative to I-SceI) [3, 8] was 0.94.

“TTCCTCTCCTCTTTCCT (double strand) [VInv_T2 left half-site]” showed an activity [4, 7] of 9.5 % NHEJ and an activity (relative to I-SceI) [4, 11] of 0.92.

“CTTCTTTCCGATCCTCA (double strand) [VInv_T2 right half-site]” gave an activity [5, 7] of 9.5 % NHEJ and an activity (relative to I-SceI) [5, 11] of 0.92.

In the case of “CCGGACTTGCAGAGTAA (double strand) [VInv_T3 right half-site]”, the activity [6, 9] was 9.9 % NHEJ and the activity (relative to I-SceI) [6, 10] was 0.96.
